Assay results: US20240383990A1
Blank lines part the entries; values can stand above or below the binder they belong to.

Molecular target: ALK1 / BMPRII receptor pair (BMPR Type I receptor ALK1 and BMPR Type II receptor BMPRII) on cells (UniProt P37023)
Assay: cell-based or functional assay

Chain of ALK1 / BMPRII receptor pair (BMPR Type I receptor ALK1 and BMPR Type II receptor BMPRII) on cells (P37023 22-503 limits assumed, chain 1 of 2): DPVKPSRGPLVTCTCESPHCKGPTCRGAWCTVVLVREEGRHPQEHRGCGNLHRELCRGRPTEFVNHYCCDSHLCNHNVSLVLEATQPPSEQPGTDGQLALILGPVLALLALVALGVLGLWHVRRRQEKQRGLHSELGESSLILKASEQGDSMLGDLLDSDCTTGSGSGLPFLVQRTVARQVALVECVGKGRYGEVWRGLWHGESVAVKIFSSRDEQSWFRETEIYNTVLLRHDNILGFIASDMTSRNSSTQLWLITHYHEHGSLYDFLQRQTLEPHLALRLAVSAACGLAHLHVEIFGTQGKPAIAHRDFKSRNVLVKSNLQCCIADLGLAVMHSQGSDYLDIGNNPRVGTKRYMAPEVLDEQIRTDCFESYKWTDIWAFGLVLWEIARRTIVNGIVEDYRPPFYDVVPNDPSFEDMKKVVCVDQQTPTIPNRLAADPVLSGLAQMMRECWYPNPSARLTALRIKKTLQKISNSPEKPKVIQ
Chain of ALK1 / BMPRII receptor pair (BMPR Type I receptor ALK1 and BMPR Type II receptor BMPRII) on cells (Q13873 27-1038 limits assumed, chain 2 of 2, further chain): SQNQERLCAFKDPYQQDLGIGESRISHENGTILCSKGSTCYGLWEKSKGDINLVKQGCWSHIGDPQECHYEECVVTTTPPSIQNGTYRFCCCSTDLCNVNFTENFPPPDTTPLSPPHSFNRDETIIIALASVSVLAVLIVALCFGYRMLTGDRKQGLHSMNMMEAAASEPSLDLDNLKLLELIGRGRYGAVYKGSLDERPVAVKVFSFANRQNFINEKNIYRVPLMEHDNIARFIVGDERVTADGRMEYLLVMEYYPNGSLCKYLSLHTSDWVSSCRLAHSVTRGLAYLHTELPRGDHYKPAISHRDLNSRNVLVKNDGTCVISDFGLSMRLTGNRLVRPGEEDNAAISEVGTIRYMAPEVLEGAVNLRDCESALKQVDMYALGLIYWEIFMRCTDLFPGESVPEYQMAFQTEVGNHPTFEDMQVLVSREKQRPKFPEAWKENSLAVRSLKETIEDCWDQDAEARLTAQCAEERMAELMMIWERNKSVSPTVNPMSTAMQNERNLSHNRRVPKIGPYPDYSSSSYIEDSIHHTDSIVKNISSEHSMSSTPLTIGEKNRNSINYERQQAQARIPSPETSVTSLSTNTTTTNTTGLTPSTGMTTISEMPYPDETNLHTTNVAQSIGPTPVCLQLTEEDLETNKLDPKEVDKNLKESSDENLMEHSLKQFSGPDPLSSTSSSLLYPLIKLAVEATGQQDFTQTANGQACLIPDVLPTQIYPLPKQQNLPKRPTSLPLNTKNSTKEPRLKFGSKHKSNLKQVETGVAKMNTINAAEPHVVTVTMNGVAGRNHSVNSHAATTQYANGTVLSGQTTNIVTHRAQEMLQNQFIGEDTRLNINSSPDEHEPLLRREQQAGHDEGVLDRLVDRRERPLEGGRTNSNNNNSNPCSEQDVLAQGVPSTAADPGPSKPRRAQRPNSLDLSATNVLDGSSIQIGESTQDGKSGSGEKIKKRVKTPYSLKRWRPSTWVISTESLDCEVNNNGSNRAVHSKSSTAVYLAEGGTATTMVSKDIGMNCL

Agonist activity, % Emax BMP9: 97 % Emax BMP9 | Agonist activity, EC50: 0.1 nM | Agonist activity, EMAX (RLU): 2.57e+06 RLU
B1: BMP10 (ligand, UniProt O95393 317-424, looked up)
chain: NAKGNYCKRTPLYIDFKEIGWDSWIIAPPGYEAYECRGVCNYPLAEHLTPTKHAIIQALVHLKNSQKASKACCVPTKLEPISILYLDKGVVTYKFKYEGMAVSECGCR

Agonist activity, % Emax BMP9: 100 % Emax BMP9 | Agonist activity, EC50: 0.02 nM | Agonist activity, EMAX (RLU): 2.64e+06 RLU | pSMAD1 ELISA in HUVEC, RLU 15 minutes, at 0 nM (baseline): 4.9 RLU | pSMAD1 ELISA in HUVEC, RLU 15 minutes, at 0.04 nM: 101 RLU | pSMAD1 ELISA in HUVEC, RLU 15 minutes, at 0.2 nM: 102 RLU | pSMAD1 ELISA in HUVEC, RLU 15 minutes, at 1 nM: 106 RLU | pSMAD1 ELISA in HUVEC, RLU 60 minutes, at 0 nM (baseline): 6.1 RLU | pSMAD1 ELISA in HUVEC, RLU 60 minutes, at 0.04 nM: 81.8 RLU | pSMAD1 ELISA in HUVEC, RLU 60 minutes, at 0.2 nM: 83.2 RLU | pSMAD1 ELISA in HUVEC, RLU 60 minutes, at 1 nM: 81.8 RLU
B2: BMP9 (ligand, UniProt Q9UK05 320-429, looked up)
chain: SAGAGSHCQKTSLRVNFEDIGWDSWIIAPKEYEAYECKGGCFFPLADDVTPTKHAIVQTLVHLKFPTKVGKACCVPTKLSPISVLYKDDMGVPTLKYHYEGMSVAECGCR
